This is an account of results in paper PMC7498356.

The target in data set [1] is T1, TDRD5 LOTUS domain 1 (L1) (Mus musculus, UniProt Q5VCS6 7-80).
T1 sequence: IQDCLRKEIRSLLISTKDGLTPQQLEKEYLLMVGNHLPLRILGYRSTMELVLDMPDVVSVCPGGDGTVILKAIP
The data set is described as follows: pull-down.

For data set [2], the target named is T2, TDRD5 LOTUS domain 3 (L3) (Mus musculus, UniProt Q5VCS6 291-365).
T2 sequence: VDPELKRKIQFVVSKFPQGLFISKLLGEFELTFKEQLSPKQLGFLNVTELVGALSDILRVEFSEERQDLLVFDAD
The experiment in a line: pull-down.

Data set [3] addresses T3, TDRD5 LOTUS domain 2 (L2) (Mus musculus, UniProt Q5VCS6 122-197).
T3 sequence: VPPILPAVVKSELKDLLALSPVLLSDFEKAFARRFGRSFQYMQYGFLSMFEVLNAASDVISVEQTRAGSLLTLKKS
The experiment in a line: pull-down.

For the next data set, the target named is T4, TDRD7 L3 (Mus musculus, UniProt Q8K1H1 325-394).
T4 sequence: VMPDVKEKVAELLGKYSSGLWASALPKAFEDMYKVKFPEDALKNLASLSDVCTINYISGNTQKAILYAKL
The data set is described as follows: ELISA.

For the next data set, the target named is T5, Tejas LOTUS (Drosophila, UniProt A1Z9P1 6-79).
T5 sequence: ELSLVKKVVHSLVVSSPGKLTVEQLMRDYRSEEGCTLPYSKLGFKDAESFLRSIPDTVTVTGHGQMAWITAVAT
The data set is described as follows: ELISA.

In the next data set the target is T6, TP0894-LOTUS (Treponema pallidum subsp. pallidum str. …, UniProt O83864 178-253).
T6 sequence: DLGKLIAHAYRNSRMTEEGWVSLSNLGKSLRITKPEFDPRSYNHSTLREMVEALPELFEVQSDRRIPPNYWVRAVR
The experiment in a line: ELISA. On the technique in general: An ELISA detects its analyte on a solid surface through an enzyme-linked reagent.

The target of the next data set is T7, human MARF1 L7 (Homo sapiens, UniProt Q9Y4F3 1411-1485).
T7 sequence: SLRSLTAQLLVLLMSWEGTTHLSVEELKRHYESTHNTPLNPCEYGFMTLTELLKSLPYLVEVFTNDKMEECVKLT
The experiment in a line: ELISA.

In another data set the target is T8, AT3G52980-LOTUS (plant, UniProt Q9LF94 199-282).
T8 sequence: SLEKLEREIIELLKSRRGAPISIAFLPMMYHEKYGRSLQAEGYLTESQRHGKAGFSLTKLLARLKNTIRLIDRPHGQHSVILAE
The experiment in a line: ELISA.

For another data set, the target named is T9, human TDRD5 L1 (Homo sapiens, UniProt Q8NAT2 7-80).
T9 sequence: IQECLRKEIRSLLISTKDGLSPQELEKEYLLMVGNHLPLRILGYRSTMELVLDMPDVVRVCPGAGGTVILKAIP
The experiment in a line: ELISA.

In a further data set the target is human TDRD7 L1 (Homo sapiens, UniProt Q8NHU6 3-76). The experiment in a line: ELISA.
Another data set addresses T10, TDRD7 L2 (Mus musculus, UniProt Q8K1H1 222-291).
T10 sequence: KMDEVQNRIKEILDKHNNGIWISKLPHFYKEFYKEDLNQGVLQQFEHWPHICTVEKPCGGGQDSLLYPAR
The data set is described as follows: ELISA.

The next data set deals with T11, Oskar LOTUS (eLOTUS) (Drosophila, UniProt P25158 139-241).
T11 sequence: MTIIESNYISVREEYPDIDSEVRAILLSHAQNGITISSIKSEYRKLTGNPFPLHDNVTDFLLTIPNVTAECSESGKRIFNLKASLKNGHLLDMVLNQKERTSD
The data set is described as follows: ELISA.

For the next data set, the target named is T12, human MARF1 L1 (Homo sapiens, UniProt Q9Y4F3 875-949).
T12 sequence: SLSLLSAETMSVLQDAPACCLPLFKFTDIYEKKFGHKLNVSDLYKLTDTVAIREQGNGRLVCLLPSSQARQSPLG
The data set is described as follows: ELISA.

The target of the next data set is T13, TDRD7 L1 (Mus musculus, UniProt Q8K1H1 3-76).
T13 sequence: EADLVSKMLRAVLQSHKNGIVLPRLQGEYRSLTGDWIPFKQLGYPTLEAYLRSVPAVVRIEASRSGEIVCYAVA
The data set is described as follows: ELISA.

Data set [4] addresses T2, TDRD5 LOTUS domain 3 (L3). The data set is described as follows: pull-down, ELISA.

Sequence of human TDRD7 L1 (Q8NHU6 3-76): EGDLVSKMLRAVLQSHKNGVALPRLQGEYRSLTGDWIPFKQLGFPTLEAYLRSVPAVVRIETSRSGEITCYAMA

Regarding AGGACCGAAGCCGAGCCGAGCC (ssRNA) [Cluster G4-2 mut RNA], the binding result in data set [1], in data set [2] and in data set [3] was “no binding” throughout.
In the case of CUCUCUCUCUCUCUCUCUCUCUCUCUCUCU (ssRNA) [Poly(CU)], the binding result in data set [1], in data set [2] and in data set [3] was “no binding” in each case.
With UUACCGUUACCGUUACCGUUACCG (ssRNA) [TERRA G4 mut RNA], the binding result (in data set [1]; in data set [2]; in data set [3]; in the data set with TDRD7 L3; in the data set with Tejas LOTUS; with TP0894-LOTUS) was “no binding” each time. Besides, the binding result with human MARF1 L7, with AT3G52980-LOTUS, in the data set with human TDRD5 L1, in the data set with human TDRD7 L1, with TDRD7 L2 and with Oskar LOTUS (eLOTUS) was “no binding” throughout. Besides, the binding result in the data set with human MARF1 L1 and with TDRD7 L1 was “no binding” in each case.
As for CACACACACACACACACACACACACACACA (ssRNA) [Poly(CA)], the binding result in [1], in [2] and in data set [3] was “no binding” each time.
GUGUGUGUGUGUGUGUGUGUGUGUGUGUGU (ssRNA) [Poly(GU)]: the binding result in data set [2] is reported as “no binding”.
Same read-out and setting: the result for GAGAGAGAGAGAGAGAGAGAGAGAGAGAGA (ssRNA) [Poly(GA)] reads “no binding”.
As to AGGAGGGAAGGGGAGGGGAGGG (structured_RNA) [Cluster G4-2 RNA], the binding result in data set [4] is “no binding”.
Regarding UUAGGGUUAGGGUUAGGGUUAGGG (structured_RNA) [TERRA G4 RNA], the binding result in the data set with TDRD7 L3, with Tejas LOTUS, with TP0894-LOTUS, with human MARF1 L7, with AT3G52980-LOTUS and with human TDRD5 L1 was “binds” each time. The binding result is recorded as “binds” with human TDRD7 L1; “binds” in the data set with TDRD7 L2; “binds” with Oskar LOTUS (eLOTUS); “binds” in the data set with human MARF1 L1; “binds” with TDRD7 L1; “no binding” in data set [4].
In the case of GGUCCGCAGCCGAGUCCGGGUCCG (ssRNA) [Cluster G4-1 mut RNA], the binding result (in [1]; in [2]; in data set [3]; with TDRD7 L3; with Tejas LOTUS; with TP0894-LOTUS) was “no binding” each time. Further, the binding result with human MARF1 L7, with AT3G52980-LOTUS, in the data set with human TDRD5 L1, with human TDRD7 L1, in the data set with TDRD7 L2 and in the data set with Oskar LOTUS (eLOTUS) was “no binding” in each case. Also, the binding result with human MARF1 L1 and in the data set with TDRD7 L1 was “no binding” in each case.
